# Source: patent US20170325479A1
# T1: beta-casein tryptic peptide HKEMPFPK
# T1 chain: HKEMPFPK
# T2: beta-lactoglobulin peptide IIAEK
# T2 chain: IIAEK
# T3: 33-mer of gliadin (alpha-2-gliadin) (aa56-88)
# T3 chain: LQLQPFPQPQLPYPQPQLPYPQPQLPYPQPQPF
# T4: beta-casein tryptic peptide GPFPIIV
# T4 chain: GPFPIIV
# T5: beta-lactoglobulin peptide VYVEELKPTPEGDLEILLQK
# T5 chain: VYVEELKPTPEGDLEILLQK
# T6: H-AAPPA-NH2
# T6 chain: AAPPA
# B1: proline tolerant tripeptidyl peptidase TRI083 (protein)
# chain: QEPSSCKGTLVFEGETFNVFQPDCLRTEYSVDGYTPSVKSGSRIGFGSFLNESASFADQALFEKHFNIPSQNFSVVLINGGTDLPQPPSDANDGEANLDAQTILTIAHPLPITEFITAGSPPYFPDPVEPAGTPNENEPYLQYYEFLLSKSNAEIPQVITNSYGDEEQTVPRSYAVRVCNLIGLLGLRGISVLHSSGDEGVGASCVATNSTTPQFNPIFPATCPYVTSVGGTVSFNPEVAWAGSSGGFSYYFSRPWYQQEAVGTYLEKYVSAETKKYYGPYVDFSGRGFPDVAAHSVSPDYPVFQGGELTPSGGTSAASPVVAAIVALLNDARLREGKPTLGFLNPLIYLHASKGFTDITSGQSEGCNGNNTQTGSPLPGAGFIAGAHWNATKGWDPTTGFGVPNLKKLLALVRF
# Columns and labels:
# [1] = target: T1, beta-casein tryptic peptide HKEMPFPK
# [2] = target: T2, beta-lactoglobulin peptide IIAEK
# [3] = target: T3, 33-mer of gliadin (alpha-2-gliadin) …
# [4] = target: T4, beta-casein tryptic peptide GPFPIIV
# [5] = target: T5, beta-lactoglobulin peptide …
# H-AAPPA-NH2 = target: T6, H-AAPPA-NH2
protein,measurement,setting,value
B1,digestion measured with LC-MS,[1],the peptide HKEMPFPK is also efficiently digested by the proline tolerant tripeptidyl peptidase
same,digestion measured with LC-MS,[2],shows the digestion of a fragment of β-lactoglobulin (peptide IIAEK) by a proline tolerant tripeptidyl peptidase
same,"Relative MS peak intensities of alpha-2-gliadin (intact substrate), 0 min (relative MS peak intensity)",[3],100
same,"Relative MS peak intensities of alpha-2-gliadin (intact substrate), 1 min (relative MS peak intensity)",[3],10
same,"Relative MS peak intensities of alpha-2-gliadin (intact substrate), 3 min (relative MS peak intensity)",[3],0
same,"Relative MS peak intensities of alpha-2-gliadin (intact substrate), 5 min (relative MS peak intensity)",[3],0
same,"Relative MS peak intensities of alpha-2-gliadin (intact substrate), 10 min (relative MS peak intensity)",[3],0
same,"Relative MS peak intensities of alpha-2-gliadin (intact substrate), 15 min (relative MS peak intensity)",[3],0
same,"Relative MS peak intensities of alpha-2-gliadin (intact substrate), 30 min (relative MS peak intensity)",[3],0
same,hydrolysis of substrate followed by LC-MS,[3],proline tolerant tripeptidyl peptidase was found to cleave the substrate alpha-2-gliadin consecutively into tri-peptides irrespective of a high proline content
same,digestion measured with LC-MS,Bradykinin,The proline tolerant tripeptidyl peptidase efficiently digests the bradykinin peptide having the amino acid sequence RPPGFSPFR (see FIG. 24)
same,digestion measured with LC-MS,[4],the proline tolerant tripeptidyl peptidase is able to efficiently digest this peptide with proline in the P1′ position and in the P2 position
same,digestion measured with LC-MS,[5],shows the digestion of a fragment of β-lactoglobulin (peptide VYVEELKPTPEGDLEILLQK) by a proline tolerant tripeptidyl peptidase
same,hydrolysis of substrate followed by LC-MS and label free quantification,H-AAPPA-NH2,proline tolerant tripeptidyl peptidase over time is able to degrade the peptide AAPPA (FIG. 5) and generate the product AAP (FIG. 6)
